Data as given in the NTF2 design screens of Basanta et al. (2020).

Assay: protease stability score; higher = more stable; yeast display proteolysis, trypsin and chymotrypsin;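 also: log10 excess protease needed over predicted unfolded state with 0 meaning unfolded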

Q: With “DERDNKVVEEYIKALQRGDPKQARRQADPNARFQVGDTELHGMDDVARKIERETKQWRLEIHHVKVDVKGDKMTIRLDFVVEVNGHPKRMNLTVEAHAHNGKIKEMVMHVDPKQEEELKS” as the sequence, how does the protease stability score read?
A: 0.188

Q: With “DEDRMTEAEKILKENNPDQMRDLFDENAKAEIGDNDLHGREHIVEEQRRYNEKVDHVQYHSVTFSNGKMRFDVRASVNGKKFRFQAEFHLDNGKIKHIKIDFRDEEDEKEFKRVVG” as the sequence, how does the protease stability score read?
A: 0.66

Q: For “DHDKQEFWNHLVEIFKSGNEDDWRKNFDPNAKWHIGDKRVHGREEAVEDFRRRREELRQNIESFTVDARGDKVTVHQVFVVEINGHPRRMSVNIRAKVHNGQIKEMDVRLSDEDKKKEKG”, which protease stability score is on record?
A: 0.478

Q: For “DEETKDWVDRFFQALHKNNEEELEQLMDPNAHINIGDKVWHGREEFRREHERQAKHWRFTQDITRIDVKGNKARLRVRFRMNYDGKPKDSKARIEIIIHNGKLKEYRQKDDG”, which protease stability score is on record?
A: 0.351

Q: Which protease stability score does the source give for “DKDERHRIAHRLNEAIRTGDPHQMLRLADKNVKVQIGEKDVRGKDAIDKYARDLRKKVDHIQLRSLDVQGEEITMTIVFNVNGRRETVVYHVDYHNGQVKRVMVRSK” here?
A: 0.043

Q: For “DEKKQAKRLHETMDRILTQGNPHEAKHLFDKDARIDVGDKKVHGREQIAKSLAERVRQVDHIHNQVDHVEVDNGQLNMTVRFQQETNGKTHDYSAQHRVDIDGDKVKVVKVTHQ”, which protease stability score is on record?
A: -0.336

Q: For “DDSKAEKFARDYVKNLHRGNQDQLARMVDPNVHFEYGDKQVHGREDYKQFNRRLRERVDHIQLKDFRIQGEKIRIEANFNVNGVNADIVFNFQIENGRVTRANMHFRSEDQEKQFHQ”, which protease stability score is on record?
A: 0.161

Q: For “DKSAQDLFRKLLEALDTGDEKTAEENMDPNAHARVGDKEVHGMDEYAKHRATENRRMKIRWNSVNLRVHNGQLNVDVDVEVTENGRPSRSRARVVMRMKNGRIKRLEVNEHK”, which protease stability score is on record?
A: -0.118

Q: With “DEDALRNWEQFIRNYKHGDETELQKLVDPNVHVRIGDREIHGREKLREHWRRQKEHARVDINVRSLEDQGSKVQVTFKMQYQVNGQPKHNSMRMEFTVRNGRIVEASYQFDPDEHRKLQS” as the sequence, how does the protease stability score read?
A: 1.23

Q: For “DEELQENAEHFMDDLKTGNEDSIKQNADPNAHFQIGDKTFHGREDFVKHIKKQRQHARIQLDVKNIDVQGDHVTINANVIVNVDGRPQSADVTILIRYHNGRIHTVLYSFSEKDKKKMES”, which protease stability score is on record?
A: 0.872

Q: With “DEEEADSWMKILQTNDEKKARDNIDPNATAHVGEQRFDGAQDFVARFMQVLKSADHVRIHSVDHEGDKVRMDITFDINGQRARVVLNIQIKNGRVVHVSVEVRNEEVKKVFDKALK” as the sequence, how does the protease stability score read?
A: 0.16

Q: With “DKEVEEVWKKMLTAQKYGDEKRYKDLADPNVKYNIGDKKIDGRDTYAEEMKKRRDEIRLRMQITDVKQQGDKLHVRFKIEAEINGKPISEDVTAVLVNHNGKVKHYSMHVPHEFFKKQQK” as the sequence, how does the protease stability score read?
A: 0.213

Q: With “DEEKKARQALKNLVQNLRTGDEDELRKMIDKDATVRVGDEEIHGRERIAKTLLEEVKEVDHFEQHVRSITRDGDKLVIVVTQKNNHNGENQHRTVTIWIHERNGELLIQSMEYK” as the sequence, how does the protease stability score read?
A: 0.504

Q: Which protease stability score does the source give for “DDDQRKDYERFLRWQEENDPRKVAEQADPNARFRYGDKHVQGREEQSRRFDEQRKDARWDLDIKRVNVEGNKITVHFKMQMDRNGKPDSRDATRTIEYDNGRIQRDEVKVSS” here?
A: -0.231

Q: For “DEEDQEKFARDFVRILKDGNPDRARKMFDENARVHVGEKVVHGRDQIRTLVEEIHRRADRINITDFRVHGNSFVFIVVLEKNGETRSFTIVVIVHNGRAQSMHVQSN”, which protease stability score is on record?
A: 0.96

Q: Which protease stability score does the source give for “DEEAMKRFQELLDVLRTGDENRAKKLMDENVHLLVGDKEINGRDHAAKTMAQTYREMRIEYKTVKRDVTNGVVHVRMRYVKEHNGTPNDRVVLVEVRFHNGRLKVLNRNEKD” here?
A: 0.352

Q: Which protease stability score does the source give for “DEDEVRKIAEDVLRIIETGNPDDAMEQADENAEVIVGDKTYSGRTELRKVIHHMREKVDHMQVKSYDAHGNKATAVFILDNNGRKDEHVVYFDFHNGRLKKVNIQKK” here?
A: 0.243

Q: Which protease stability score does the source give for “DETEWREFAEEFIRLFQQGDEDRLRKLIDKNAKIRYGDREVDGRDSIAKQIRDNREQIDRIDLVDMKVRGEHITITIDVDHNGQRRRIVIHINVHNGHIKNVEVDSG” here?
A: 1.02

Q: Which protease stability score does the source give for “DEERMHQLEKLFRTNNFEEFAKQADKDVTAKVGNETYTGREDMEKFARRLREQVDSIHYDRVEVKGDKFKADAQFDFNGKRVRFTVEVEFHNGKLQHMRMQATTHELEETLAKLLS” here?
A: 1.41

Q: For “DERVADQFVRALRTNDEEQLVRLMDEDAKMRVGEKEIHGRESVQTYLRRFAQQADHVDIHHVHIQGDKVSIDAVVEFNGKRVRFSMQFTVEGEKVKDVTIEARDEDDKRKLDEIFR”, which protease stability score is on record?
A: 1.79

Q: Which protease stability score does the source give for “DEHVNKLAHRLLEAIEEGNPEMFKELADEDVHFQVGDKSYHGMEDYANSIVEKLRQMHFEIKSYSFRNEPGRATLDLRVQMEHDGQPRESKNTVDVKAKNGRVKRVKFREKR” here?
A: 0.155

Q: Which protease stability score does the source give for “DEEELRELVRNIIEQLQQNNEEELKKQMDKDARMQYGDKEWHGREDIVRHLASVAHQVDHLELESVSVDGNKAHFTFRRQVNGHDETLRAELVVRNGRVVSIKYRHN” here?
A: -0.021

Q: Which protease stability score does the source give for “DEDEQRTLVEQLARAIQQGDEDQVRKLADPNAKARYGDHEIHGHDQLAHVVRQLKDQVDSIEVESFSVRNGRAELDIRFDVNGRDVKITINAEIRNGRMKHVEFQYTNEDQEKTANR” here?
A: 0.948

Q: Which protease stability score does the source give for “DEKKVLEVIQKFAEAIKDGNAEQAKKLGKEGIQVHIGDETINGPDQVEKYVKKVKDLGNEVHYKEKEVKGDEVTVHTEVKMGDQTVHFEVHYRAKDDKVEQFHVKFDKDEARRFKTS” here?
A: -0.27

Q: For “DDKDVEKAVRVMQTNDPDKYERMLDEDVSMVVGDQTYHGRETVNKVYKHYLERVDHIKITRYTIRNGVATVRYVVEWNGKSADVVVHVEVHNGRAKRFEYDVRDSEDKKNMEEMIK”, which protease stability score is on record?
A: 0.358

Q: For “DEEAQKQFEEFLDVLETGDPKRLQDNMDEDARVVIGDKTITGREEAAKEWHKIRQEISVEIKHVHMEAQGDKLNATLDVVWNVNGRPHRFKFVIIMDFHNGRIKQIEIRMDERHLKKLRT”, which protease stability score is on record?
A: 0.499

Q: With “DDREVVDRALKELRSILHEGDEEQMHRNFPPEASVKYGDTEYTGMESAAHLIIELRKRVDHMEQRVTTVNVRNGTVDVDMSADVRHNGREDSIKVKLILRISNGRAQLEQVINP” as the sequence, how does the protease stability score read?
A: 1.18

Q: For “DDEVQEVAEQWMRAFNTGDPDTFKDLLDKDVRVQYGDKRLSGKKTLANELQHQKEHQRFKVQHVDIKVTGNKAEINFTLVMDVNGKPVHYTVRANLDVHNGKVKEARFTMDPNTLSKMKR”, which protease stability score is on record?
A: -0.24

Q: With “DEDHLKDANRRVVHALEHGDPDEFMNMADKDVQIEIGDTVVEGSHKLKEWAEDLHNRVDHIEILKVDLQGDTLNLNVRMRSNGHNRNAVLHVRVHNGKIQSLRMKDN” as the sequence, how does the protease stability score read?
A: 0.55

Q: With “DEEHELDMARKMFEAVKQGDEEEVQRNAPPDVRMEIGDRTYHGREQVRKAAKEFQKRVDHMQLDSVKLHNGDVHAKVILNINGKNNDVVVQIHIDNGRITELRFKTS” as the sequence, how does the protease stability score read?
A: -0.06

Q: Which protease stability score does the source give for “DQQDVDRFTEFLEAVERGDEDRLRELMDKDAKQKVGDKTIEGSEKQVNELNDRARRMRIVLEVHDVKVHNGRLEARADLLVNVNGQPVRDDVVVRVQVHNGKITHVEMHFPEEFKRQMRR” here?
A: 0.858

Q: With “DEDRRAKELAERLDEALRTGDEERLQRLFDKDVRFDIGDKTIHGRTEAARQMVTHANRADHVHMKVTDLKRHGSRIVVVVHFRQNINGKKDSRDVKIEVKLEGDRIKVVRATYR” as the sequence, how does the protease stability score read?
A: 0.888

Q: Which protease stability score does the source give for “EDTFVRLVHQMWNDLERGNPEKFRENVDPNARIQVGDQTIHGREQAEEWAERLKRKLQFTVDVKSVTEEPGRIRMRANLINNHNGRPTTKHVIFLANETNGRIKTFRFRQDQ” here?
A: 0.103

Q: For “DEDKEAREIAKKIARDLNRGNQEEVVKQFDPNVRLNIGDKEVTGREEVRKEVKKVQQKFDHADIRIRDYRSEGDSANLDFYLTLTHNGRHDKRRWTLHLENHNGRYIVKHVQHN”, which protease stability score is on record?
A: 0.028

Q: Which protease stability score does the source give for “DEKKLLEIAKEVADYVRNGNADQVAKLGKEGIQANFGDEQVNGPDQMREYVKKVKDLGLHAEYKEEKYEGDTVELHTQAHLGDVTADFTVTYIVKGDKLDKVEVRFNKEQMKKFKTS” here?
A: 0.007

Q: With “DEEAVRHYHEMVREEETGNEDEAMKYFDPNATVRIGDKTVKGKDSIRKWVRDRRDEMRVEIHQLNVHVSNGQIDVSVDFTKEHNGRPQTMQQKVRVTATNGKIKKVNNHDDG” as the sequence, how does the protease stability score read?
A: -0.261
